First the molecules themselves.
B2: 6His-tagged HAdV5 IVa2, purified from E. coli (natural protein)
chain: METRGRRPAALQHQQDQPQAHPGQRAARSAPLHRDPDYADEDPAPVERHDPGPSGRAPTTAVQRKPPQPAKRGDMLDRDAVEQVTELWDRLELLGQTLKSMPTADGLKPLKNFASLQELLSLGGERLLADLVRENMRVRDMLNEVAPLLRDDGSCSSLNYQLHPVIGVIYGPTGCGKSQLLRNLLSSQLISPTPETVFFIAPQVDMIPPSELKAWEMQICEGNYAPGPDGTIIPQSGTLRPRFVKMAYDDLILEHNYDVSDPRNIFAQAAARGPIAIIMDECMENLGGHKGVSKFFHAFPSKLHDKFPKCTGYTVLVVLHNMNPRRDMAGNIANLKIQSKMHLISPRMHPSQLNRFVNTYTKGLPLAISLLLKDIFRHHAQRSCYDWIIYNTTPQHEALQWCYLHPRDGLMPMYLNIQSHLYHVLEKIHRTLNDRDRWSRAYRARKTPK
notes: IVa2 of human adenovirus serotype 5; synthetic gene cassette, codon-optimized for bacteria, in pET28a (pET28-IVa2); the results speak of the full-length IVa2 band; A faster migrating band, perhaps a degradation product of IVa2, was also in the preparation; also called purified IVa2; source: E. coli BL21 (DE3) pLysS, purified (HiTrap NiNTA, HiPrep 16/10 SP-XL cation exchange)

For data set [1], the target named is B2. The experiment in a line: cell-based or functional assay.
Data set [2] deals with the molecule itself. Description: transmission electron microscopy (negative stain); purified protein on glow-discharged carbon-coated formvar grids, rinsed with 20 mM Tris pH 7.5, 2% uranyl acetate.

B1: 6His-tagged HAdV5 L4 33K, purified from E. coli (natural protein)
chain: MAPKKKLQLPPPPTDEEEYWDSQAEEVLDEEEEDMMEDWESLDEEASEVEEVSDETPSPSVAFPSPAPQKSATGSSMATTSAPQAPPALPVRRPNRRWDTTGTRAAHTAPAAAAAAATAAATQKQRRPDSKTLTKPKKSTAAAAAGGGALRLAPNEPVSTRELRNRIFPTLYAIFQQSRGQEQELKIKNRSLRSLTRSCLYHKSEDQLRRTLEDAEALFSKYCALTLKD
In the case of B1, the “ATPase activity of purified IVa2 (inorganic phosphate after 30 min at 37°C) with 33K and HAdV5 Tp-DNA; no significant increase with only IVa2 + 33K, 33K + Tp-DNA or IVa2 + Tp-DNA” value in data set [1] stood at 3 fold.

In the case of B2, the binding result in data set [2] is on record as “binds”.
